# Experimental data published in the DeepSol protein solubility set.
# Experiment: soluble on expression in E. coli; label from the status in PepcDB or PDB records
row,Sequence,soluble on expression in E. coli
1,MAHHHHHHMPGPGLLADGWFREENGQWPGQAMSFKVEEVLHDTPTKFQHLSIFETDPKGPWGTVMTLDGCIQLTDFDEFVYHEMLSHTPLCAHPDPVDVLIIGGGDGGVMREVLRHGTVKRCVLVDIDGDVIEASKKYFPQISSGFSDPRADVRVGDGVAFVREAASESFDVVIIDTTDPDGPAAELFGEKFYRDVLRILKPRGICCNQGESVWLNRNLIEGMADFIKNKVGFASVKYAMIYTPTYPCGSIGSLICSKVAGVDVTQPVRPVESMPFAGELKYYDSDVHKAAFVLPRFARHLNQNYS,soluble
2,MGSDKIHHHHHHMAMTTEFANEITDVAKAIYEYAELGSSEYKSSSYLVEAFKRHGFQVDFPYLGMKTAFKARYFNGKPMVGLLAEYDALPNGHSCGHDLIAAWAFGTAIRLKDEFGISVTVFGTPSEEGIGEYAGSKAKFAQSGAFSDVDYVIGMHPDDRWAVGSTSLADLTIEAQFIGKSSHLLSPDYGINALDPLVESYVALSNFRRSVPNSKYPVIGMIVKEGGRASNVIPDKASMEIDIRAKKKADLAGFVDQIERILKMEGEMHYCKLNINEVTPIYDEYKSNRVIDSLLEEECQKHAVNPFNVDRSGEEPMGSTDEANVSQVIPTGHLDVKIVDPGIPAHTDEFRIAADPSRSGKTLLKAIDITVETIKTIWQDKKFMNKIKEEFKK,not soluble
3,MSLSSMLPSISPELARIAPGFRALSINVIAAPVRDAQVGEIALKEACQAVINGQPAWAQAHIDAWNAVFKAFGAKPKRTPCSAEALRKRVLKDGTMAALDPVVDLYNAVSLRYAVPVGGENSAAYCGSPRLVFADGSETFDTLKEGKPVTESPEPGEVIWRDDRGVTCRRWNWRQGVRTRLSASDKMMWFILESLPEMPVDELYAAENMLTDGLEKMMPGLRFESTLIGVEGHHHHHH,not soluble
4,ETRECKEALAKSEMNVNMKCQLPNFTAETPIQNVILHEHHIFLGATNYIYVLNEEDLQKVAEYKTGPVLEHPDCFPCQDCSSKANLSGGVWKDNINMALVVDTYYDDQLISCGSVNRGTCQRHVFPHNHTADIQSEVHCIFSPQIEEPSQCPDCVVSALGAKVLSSVKDRFINFFVGNTINSSYFPDHPLHSISVRRLKETKDGFMFLTDQSYIDVLPEFRDSYPIKYVHAFESNNFIYFLTVQRETLDAQTFHTRIIRFCSINSGLHSYMEMPLECILTEKRKKRSTKKEVFNILQAAYVSKPGAQLARQIGASLNDDILFAVFAQSKPDSAEPMDRSAMCAFPIKYVNDFFNKIVNKNNVRCLQHFYGPNHEHCFNRTLLRNSSGCEARRDEYRTEFTTALQRVDLFMGQFSEVLLTSISTFIKGDLTIANLGTSEGRFMQVVVSRSGPSTPHVNFLLDSHPVSPEVIVEHTLNQNGYTLVITGKKITKIPLNGLGCRHFQSCSQCLSAPPFVQCGWCHDKCVRSEECLSGTWTQQICLPAIYKVFPNSAPLEGGTRLTICGWDFGFRRNNKFDLKKTRVLLGNESCTLTLSESTMNTLKCTVGPAMNKHFNMSIIISNGHGTTQYSTFSYVDPVITSISPKYGPMAGGTLLTLTGNYLNSGNSRHISIGGKTCTLKSVSNSILECYTPAQTISTEFAVKLKIDLANRETSIFSYREDLHHHHHH,soluble
5,MSGQKCSAYTDTMGTCTICSIFAPHSQLFICRHEGCKYALKQSSSIMTPAMFYRKEKVICGKCAFVGPHKMHKDFVSKAQKLAFKIASQEIGVRLQMEFDVLSELHEDNPVDYAIILSGHEKLEKIDVIKYLSQSKTIVEWNLRQRQLNEAIQFIKFNRIEGYHRVKELANKMLDAFYDANATIERDSENGSPQSDDDHLSDVSHECQGSSRSSISSKKSSIHSTSTTGTVILNQNPDNALSCSEVSGGDELKNKSSTNEGYTESMTETVITISRRFEMCIRRESPEDAVSRIADYLDDRIESNDQKKAIAEYMERNYSIKWPRQFQ,not soluble
6,MLVAGAGALCLTLSGCAGAGSLGASDQTITIAMVSNSQMQDAQKLASQFEEENPDIDLKFVTLSENQARAKITASTATGGGEFDVVMISNYETPQWAKYGWLKNLSEYAEATEGYDEADFIPTLRESLSYEGNMYSVPFYGESSFLMYRKDLFEQAGITLSEKPTWTEVATAAKQLDSEDMAGICLRGKPGWGELLAPLDTVINTFGGRWFDEDWNAQLTSPEVERAVQFYVDLVREYGEPGAATSGFGECATQLAQGQVAMWYDSTSAVSTLEDPASSAVVGKIGYAPAPIEVKDNSGWLYSWSLGIPESSENPDAAWKFISWMTDKQYIRTVGEDLGWERVPPGSRLSTYEIPEYKEASAAYGPLTLEAIEDATPNAPTVQPVPYTGVQFLAIPEFQDLGTRVSQQISAAIAGQQTVPEALAQAQQYAEVVGATYREDR,not soluble
7,AHHHHHHGSEDIVEALKLAVTNLPEDVALALKNAYEREDYEIAKYNLEIMLRAVKTSKKEKVPLCQDTGTPIFFVETDGTWNVKEIYETIAEAVKRATDEIPLRPNAICLLSGKVVGNVPEIHIEPGKRNRISILIKGGGSENCSALFPLTPGDWFEGVKKKIIDHIRSCGGKPCPPIIVGIGIASPAERAITLAKKSLFRKIGERHEKLGWLEEEILEEINFLDIGPMGLGGKTTALDVKIEVGERHPASFIVGIAIQCWAHRRAFIEEKEDGEVVIWQ,soluble
8,EERFAELFAAVDWISLGGGIHFTAENYPLETFAERLKHFSKTYDVTIFLEPGEAAITKSTTLEVSVLDTLYNEKNLAIVDSSIEAHMLDLLIYRENAKLEQNQGPYEIMVCGKSCLAGDIFGTFRFPEPLKIGDRLSFQDTAGYTMVKKNWFNGVTMPAIVIKECNGALTIQRQFSYNDYQKSLS,not soluble
9,MAHHHHHHMKENVLINENIKAHEEKGNLNDDKRDEHMISLRGLNIYYKDKLENLNTIKNIDNNKKFIKLVLEDVDLKPEEIMKHILHLLKEKTSLHTILEINKQKYKIKYKEIIPDDHILFTQNIQNITNCKYALLGILKVSKYTKKNTFNEKLLQSWQDVPMEF,not soluble
10,MGSSHHHHHHSSGLVPRGSHMDTTVPTFSLAELQQGLHQDEFRRCLRDKGLFYLTDCGLTDTELKSAKDLVIDFFEHGSEAEKRAVTSPVPTMRRGFTGLESESTAQITNTGSYSDYSMCYSMGTADNLFPSGDFERIWTQYFDRQYTASRAVAREVLRATGTEPDGGVEAFLDCEPLLRFRYFPQVPEHRSAEEQPLRMAPHYDLSMVTLIQQTPCANGFVSLQAEVGGAFTDLPYRPDAVLVFCGAIATLVTGGQVKAPRHHVAAPRRDQIAGSSRTSSVFFLRPNADFTFSVPLARECGFDVSLDGETATFQDWIGGNYVNIRRTSKA,soluble
11,MGHHHHHHSHRIVILQGAAGIGKSTLARQVKEAWGRGQLYGDRFQHVFYFSCRELAQSKVVSLAELIGKDGTATPAPIRQILSRPERLLFILDGVDEPGWVLQEPSSELCLHWSQPQPADALLGSLLGKTILPEASFLITARTTALQNLIPSLEQARWVEVLGFSESSRKEYFYRYFT,not soluble
12,MGSDKIHHHHHHMRVEDILDQLVMQSRDQDGAKYYISLINDMRIDRSVDPVKSIILEILSLCSDGRIDPWDVDLLKFAEIMNSFFGNSFIDFQFAGKAIADAWRVLRIKSDMSPKEQDRQMNDIGCEEPEDTDNFIPQNQVVIQLVPSVLTPQSRPVVLVDLIDEIRRKMYSSRLQKKKVDVHIEFDSSKLNPDRSEEMIEKTYRAIIESGKQKVFMSEIWGNTRRERAVFFLYSMFLFRDGRISLSQEEPNGDILIETNVI,not soluble
13,MFPERLRALRRGQKMTLAQLAAALNQMPTADKTTRQNTAAQIGNWERDLRTPSYLEVRKLAEFFNVTTDYLSGKSDQEEYDLGRIFLSGKPLTFNQEQLSSEDRYELFQLMDGYLHGRQHRVSTDATGQEELDLHFDD,not soluble
14,MGHHHHHHSHMSGTEEAILGGRDSHPAAGGGSVLCFGQCQYTAEEYQAIQKALRQRLGPEYISSRMAGGGQKVCYIEGHRVINLANEMFGYNGWAHSITQQNVGEYALQQWGLLHCPAPAESLLWVRR,soluble
15,TAPSQVLKIRRPDDWHLHLRDGDMLKTVVPYTSEIYGRAIVMPNLAPPVTTVEAAVAYRQRILDAVPAGHDFTPLMTCYLTDSLDPNELERGFNEGVFTAAKLYPANAVTNSSHGVTSVDAIMPVLERMEKIGMPLLVHGEVTHADIDIFDREARFIESVMEPLRQRLTALKVVFEHITTKDAADYVRDGNERLAATITPQHLMFNRNHMLVGGVRPHLYCLPILKRNIHQQALRELVASGFNRVFLGTDSAPHARHRKESSCGCAGCFNAPTALGSYATVFEEMNALQHFEAFCSVNGPQFYGLPVNDTFIELVREEQQVAESIALTDDTLVPFLAGETVRWSVKQ,soluble
16,MSLSITSDLIATANSGIWTDSEMLECCAVVPEAPDTVTISFVSPSGNLFKYEPGQFLTLELPVPGGPLYRTYTISSSPSRPLSLSITVKAQPGSIGTRWMLEKLMPGMRVKAIGPAGQFTLDTTARKKKYLFISAGSGVTPTLAMTTYLYDRGTDIDVSIINCARRPGEIIGRRSLAAMASRVPSIKLTFIVEEDDPFQVWTGLRGRLNQIMIGIVAGDYLERDIYCCGPEPFMDAVREMLIGLGYDMSRYSQESFSAPAETAEDVPDLDDVTPDESVAAQITFVSSKVTAGCTETDTVLAVARGAGLNIPSGCTFGVCGTCKIRKTKGEVHMVHNGGISEDDIADGYILACCSKPVGQVEVDIEGHHHHHH,soluble
17,GPGSMGNGCCGCCDAKPDYKLGRPLVSGKTTPCFNDGRLFKIVKGDIWYFYNDTQDYQMKVTADFGNGSNIVAMSDTELVRKNDSGACTATVSVFPLETKAMVQTKEVNGFNVKYSGIAFTDADRQKLRQKAAAQVSADLAEMRKLRERNPKVNNQNRLLKVARGKGKMYVDTSFPPTSQSLIRSGIDSDPDACLKRPETIAWRRPEDFLPKKWHPKIRLFGNISPKDISQGQLGDCYYLCALAALAEHDAAIKGIFKNHHGCCIRSQERKHGAWRVNLNISGWWRTIIIDSYLPTVQLLPVFARNRNHPNELWVSFAEKAYAKVFGSYQAIVAGYPWQALEDLTGFPAYNFGNMWRTAQTDTETRKKLFDSLHRWNKKYLICIATPSNGALKMAGKQLSANQWEALFEKAGLRIGHAYSVLDVRHFPLHRLCMLKIRNPWGSHVEWSGDWGDDSPLWNRYPFIKLACRPEKKADGIFWMEWRDVSKFFDSGSVCFRRGHWFRSWYDYRVLGSFEDLVCDTALLIIVNKTSQFPAYISLHQKDCRGLATSDPDSKYACVMISISEGDINGSQQKVVANSSENPEEPSTEYLFQESRSVSLYYKFTKGHKYLVIPRRMKSSTGNNVPKKKYVIALRTQTKVSSEDVVVNIVRLDKNNAVFKNVASFDAGTPTSLNTLYQIKDGNNVFRTYRSDNLRKGKKQHNAEFELVM,not soluble
18,MENLKNYFDVVIIGAGPAGLFAAYELSKYDNLKTVVIDRGKDVLERHCAAEKLKKCIKCNPCQIMYGVGGAGGLSDGTLNLRPDIGGNLAEITNNENYAWQLIFEVDKIFLEHGGPKKLFKGSFEKIKGLQRRSAQNGVRFIPIIQRHIGSDHTKQLINNIKTTLQNRGVEFLLNTEVFKFEKNKVFVNISGKKEEINAKYIIVAPGRGNAEWFLKISEKIGLISNHGPIDVGVRVEVPSIIMESITEINHDPKFHIYTDTYDDFVRTFCTNPYGFVVEENYGDIIGVNGHSMVDKKSENTNFSFLTRIELTEPVENTTSYGKSIAKLTTTLGGGKPILQRLGDLKRGRRSTWDRLKKSSFDPTLKQVTPGDIAMALPHRIVTNIIEGLEKLDKVIPGVSNDHTLLYAPEIKYYAMKTKVNDDLETSILNIFAAGDGAGLSRDITNSCATGMLAARGILKKEGITDIFKDENTNWQEKVESMKLEHHHHHH,soluble
19,MWPLLKNNVVRTGRRYAVFQPRRFTPRPQHDAFGTKDDVRGFTVFSHAACGASLMDPLSPSRWEVALFPSSPPSLKDSCHLCAWTFGLAGPCAAWLSTRRELVGGFSKIIYIQNSAECWSVRETKRCCRICRWRSTSSSTDLRSNPYPIRWCYCWTMFPPMYPVLLLTASPVPTPLEHHHHHH,not soluble
